{"source": "patent US20080286284A1", "about": "(published 2008)", "binders": {"B1": {"name": "AB-PG1-XG1-077 (antibody, V domains shown)", "VH": "QVQLVESGGGVVQPGRSLRLSCAASGFTFISYGMHWVRQAPGKGLEWVAVISYDGSNKYYADSVKGRFTISRDNSKNTLYLQMNSLRAEDTAVYYCARVLVGALYYYNYYGMDVWGQGTTVTVSS", "VL": "DIVMTQTPLSLSVTPGQPASISCKSSQSLLHSDGKTFLYWYLQKPGQPPQLLIYEVSNRFSGVPDRFSGSGSGTDFTLKISRVEAEDVGLYYCMQSIQLPLTFGGGTKVEIK", "notes": "also called PRGX1-XG1-077"}, "B2": {"name": "AB-PG1-XG1-006 (antibody, V domains shown)", "VH": "QVQLVESGGGVVQPGRSLRLSCAASGFAFSRYGMHWVRQAPGKGLEWVAVIWYDGSNKYYADSVKGRFTISRDNSKNTQYLQMNSLRAEDTAVYYCARGGDFLYYYYYGMDVWGQGTTVTVSS", "VL": "DIQMTQSPSSLSASVGDRVTITCRASQGISNYLAWYQQKTGKVPKFLIYEASTLQSGVPSRFSGGGSGTDFTLTISSLQPEDVATYYCQNYNSAPFTFGPGTKVDIK", "notes": "also called XG-006; PRGX1-XG1-006"}, "B3": {"name": "AB-PG1-XG1-069 (antibody, V domains shown)", "VH": "EVQLVQSGAEVKKPGESLKISCKGSGYSFTSYWIGWVRQMPGKGLEWMGIIYPGDSDTRYSPSFQGQVTISADKSISTAYLQWSSLKASDTAMYYCARRMAAAGPFDYWGQGTLVTVSS", "VL": "GIVMTQSPATLSVSPGERATLSCRTSQSIGWNLAWYQQKPGQAPRLLIYGASSRTTGIPARFSGSGSGTEFTLTISSLQSEDSAVYYCQHYDNWPMCSFGQGTELEIK", "notes": "also called PRGX1-XG1-069"}, "B4": {"name": "PSMA 10.3 (antibody, V domains shown)", "VH": "QEQLVESGGGVVQPGRSLRLSCAASGFTFSTYGMHWVRQAPGKGLEWVAVTWHDGSNKYYADSVKGRFTISRDNSKNTLYLQMNSLRAEDTAVYYCARGGVGATYYYYYGMDVWGQGTTVTVSS", "VL": "not shown"}, "B5": {"name": "^225Ac labeled mAb 026 (antibody, V domains shown)", "VH": "QVQLVESGGGVVQPGRSLRLSCAASGFTFSNYVMHWVRQAPGKGLEWVAIIWYDGSNKYYADSVKGRFTISRDNSKNTLYLQMNSLRAEDTAVYYCAGGYNWNYEYHYYGMDVWGQGTTVTVSS", "VL": "DIQMTQSPSSLSASVGDRVTITCRASQGITNYLAWFQQKPGKAPKSLIYAASSLQSGVPSKFSGSGSGTDFSLTISSLQPEDFATYYCQQYNSYPITFGQGTRLEIK"}, "B6": {"name": "AB-PG1-XG1-051 (antibody, V domains shown)", "VH": "QVQLVESGGGVVQPGRSLRLSCAASGFTFSSYGMHWVRQAPGKGLDWVAIIWHDGSNKYYADSVKGRFTISRDNSKKTLYLQMNSLRAEDTAVYYCARAWAYDYGDYEYYFGMDVWGQGTTVTVSS", "VL": "B5 VL with T30S, N31H, S72T, Y94F, I96L, Q100G, R103K, L104V", "notes": "also called XG-051; PRGX1-XG1-051"}, "B7": {"name": "AB-PG1-XG1-026 (antibody, V domains shown)", "VH": "B5 VH", "VL": "B5 VL", "notes": "also called XG-026; PRGX1-XG1-026"}}, "key": {"[1]": {"biological_target": "T1, recombinant soluble PSMA (rsPSMA) (human, UniProt Q04609 44-750)", "T1 construct": "also called rsPSMA dimer; secreted rsPSMA", "T1 sequence (Q04609 44-750)": "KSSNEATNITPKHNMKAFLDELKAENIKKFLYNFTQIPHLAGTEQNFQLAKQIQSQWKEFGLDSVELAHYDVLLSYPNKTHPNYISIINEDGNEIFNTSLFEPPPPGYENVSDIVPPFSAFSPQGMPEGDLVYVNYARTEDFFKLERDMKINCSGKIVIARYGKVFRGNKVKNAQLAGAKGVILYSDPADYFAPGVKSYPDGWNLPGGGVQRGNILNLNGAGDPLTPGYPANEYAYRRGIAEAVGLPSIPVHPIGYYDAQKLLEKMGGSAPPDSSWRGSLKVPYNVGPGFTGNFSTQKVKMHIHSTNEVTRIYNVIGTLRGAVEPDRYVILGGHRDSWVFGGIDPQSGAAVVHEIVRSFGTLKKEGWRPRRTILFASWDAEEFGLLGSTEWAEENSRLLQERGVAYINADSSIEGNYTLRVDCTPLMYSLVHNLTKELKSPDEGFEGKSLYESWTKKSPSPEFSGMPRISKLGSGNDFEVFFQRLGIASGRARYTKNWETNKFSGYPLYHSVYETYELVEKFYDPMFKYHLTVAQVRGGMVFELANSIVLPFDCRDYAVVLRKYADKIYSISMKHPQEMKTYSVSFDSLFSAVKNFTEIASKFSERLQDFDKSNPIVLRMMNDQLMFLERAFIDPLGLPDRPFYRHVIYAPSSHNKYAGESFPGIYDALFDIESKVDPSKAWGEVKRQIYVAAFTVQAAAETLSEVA", "assay": "Biacore, rsPSMA", "description": "(§1) The streptavidin-coated sensor chips (SA chips, Biacore) were used to capture biotinylated anti-human IgG antibody (Sigma, St. Louis, Mo.). The entire sensor chip surface was conditioned with five injections of conditioning solution (1 M NaCl, 50 mM NaOH) and equilibrated with PBS buffer containing 0.005% polysorbate 20. Two to three thousand resonance units (RU) of biotinylated anti-human IgG antibody (Sigma) were immobilized onto the SA chip followed by an injection of regeneration buffer (glycine-HCl, pH 2.2). […] For each antibody at one concentration, the chip was regenerated and equilibrated. […] Thermodynamic and kinetic rate constants of binding were calculated using the Biacore Evaluation software."}, "[2]": {"biological_target": "T2, prostate specific membrane antigen (PSMA), full-length human (human, UniProt Q04609 1-750)", "T2 construct": "also called cell-surface PSMA; full-length PSMA", "T2 sequence (Q04609 whole entry)": "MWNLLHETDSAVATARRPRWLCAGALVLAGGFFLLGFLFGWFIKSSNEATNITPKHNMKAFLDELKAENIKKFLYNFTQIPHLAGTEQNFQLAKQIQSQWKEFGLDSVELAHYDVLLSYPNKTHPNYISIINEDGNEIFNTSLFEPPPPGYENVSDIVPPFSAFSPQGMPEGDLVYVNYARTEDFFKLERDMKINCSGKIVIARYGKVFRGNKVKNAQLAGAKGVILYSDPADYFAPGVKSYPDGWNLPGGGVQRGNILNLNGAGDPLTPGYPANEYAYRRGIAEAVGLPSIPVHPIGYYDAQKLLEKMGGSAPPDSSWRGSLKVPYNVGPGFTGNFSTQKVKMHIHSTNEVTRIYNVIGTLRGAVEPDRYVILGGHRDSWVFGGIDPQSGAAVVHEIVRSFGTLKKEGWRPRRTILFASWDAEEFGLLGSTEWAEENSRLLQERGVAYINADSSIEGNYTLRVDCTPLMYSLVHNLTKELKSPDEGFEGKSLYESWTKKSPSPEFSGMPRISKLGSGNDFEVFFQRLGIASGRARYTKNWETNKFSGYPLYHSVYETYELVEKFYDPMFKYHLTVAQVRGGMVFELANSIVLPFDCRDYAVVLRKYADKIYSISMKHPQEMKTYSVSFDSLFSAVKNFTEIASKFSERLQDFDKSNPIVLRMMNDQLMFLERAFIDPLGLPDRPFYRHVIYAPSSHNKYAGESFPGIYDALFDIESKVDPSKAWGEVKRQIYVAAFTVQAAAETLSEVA", "assay": "FACS, C4-2 cells"}, "[3]": {"biological_target": "T2, prostate specific membrane antigen …", "assay": "FACS, supernatant"}, "[4]": {"biological_target": "T2, prostate specific membrane antigen …", "assay": "FACS, 3T3-PSMA cells", "description": "Control anti-human IgG (Caltag, Burlingame, Calif.) was used to establish background binding. After two washes in PBS, the cells were incubated with anti-human IgG (BD Pharmingen, San Diego, Calif.) for 30 minutes on ice. Cells were washed twice in PBS, resuspended in 250 μl PBS and analyzed by flow cytometry using a FACScan machine (Becton Dickinson, Franklin Lakes, N.J.) and CellQuest software. Viable cells were gated by forward scatter and side scatter parameters, and binding was quantified using histogram plots of mean fluorescence intensity (MFI) levels."}, "[5]": {"biological_target": "T2, prostate specific membrane antigen …", "assay": "lysate EIA, supernatant"}, "[6]": {"biological_target": "T1, recombinant soluble PSMA (rsPSMA)", "assay": "Biacore; Avg KD", "description": "(§2) To determine the kinetics and affinity of the antibodies, the antibodies in crude supernatants, in purified form and in bifunctional chelate modified forms were analyzed using a Biacore 3000 instrument (Biacore Inc., Piscataway, N.J.). Biacore 3000 is a fully automated surface plasmon resonance (SPR)-based biosensor system that is designed to provide real-time kinetic data from assay formats that require no tags or labeling of compounds for biomolecular interactions. It is ideal for screening crude supernatants.\nas §1"}, "[7]": {"biological_target": "T1, recombinant soluble PSMA (rsPSMA)", "assay": "cell-based or functional assay"}, "[8]": {"biological_target": "T1, recombinant soluble PSMA (rsPSMA)", "assay": "Biacore; Avg KD of purified 006", "description": "as §2, §1"}, "[9]": {"biological_target": "T1, recombinant soluble PSMA (rsPSMA)", "assay": "Biacore, captured mAb, rsPSMA in flow", "description": "as §2, §1"}, "[10]": {"biological_target": "T1, recombinant soluble PSMA (rsPSMA)", "assay": "Biacore; Avg KD of purified 10.3", "description": "as §2, §1"}, "[11]": {"biological_target": "T2, prostate specific membrane antigen …", "assay": "cell-based or functional assay"}}, "note": "Numbering of substitutions follows the chain as printed. Several values for one entry are separate records, joined by “and”; a condition that tells them apart may be missing. Equal values may be shown once."}
{"binder": "B1", "values": [{"measurement": "Kd", "setting": "[1]", "result": 1.6, "unit": "nM"}, {"measurement": "koff", "setting": "[1]", "result": 0.000104, "unit": "s⁻¹"}, {"measurement": "kon", "setting": "[1]", "result": 60000, "unit": "M⁻¹ s⁻¹"}, {"measurement": "C4.2 FACS", "setting": "[2]", "result": 12.4}, {"measurement": "PGNX FACS", "setting": "[3]", "result": 392}, {"measurement": "AVG Max binding", "setting": "[4]", "result": 227}, {"measurement": "Lysate EIA", "setting": "[5]", "result": 0.45}]}
{"binder": "B2", "values": [{"measurement": "Kd", "setting": "[6]", "result": 0.492, "unit": "nM"}, {"measurement": "Kd", "setting": "[1]", "result": 0.48, "unit": "nM"}, {"measurement": "koff", "setting": "[1]", "result": "6.4e-05", "unit": "s⁻¹"}, {"measurement": "kon", "setting": "[1]", "result": 130000, "unit": "M⁻¹ s⁻¹"}, {"measurement": "C4.2 FACS", "setting": "[2]", "result": 9.5}, {"measurement": "PGNX FACS", "setting": "[3]", "result": 114}, {"measurement": "IC50, folate hydrolase activity", "setting": "[7]", "result": 9.34, "unit": "µg/mL"}, {"measurement": "AVG Max binding", "setting": "[4]", "result": 183}, {"measurement": "Lysate EIA", "setting": "[5]", "result": 0.39}, {"measurement": "Kd", "setting": "[8]", "result": 0.514, "unit": "nM"}, {"measurement": "Kd", "setting": "[9]", "result": "0.466 nM and 0.562 nM and 0.492 nM"}, {"measurement": "koff", "setting": "[9]", "result": "0.000137 s⁻¹ and 0.000127 s⁻¹ and 6.4e-05 s⁻¹"}, {"measurement": "kon", "setting": "[9]", "result": "294000 M⁻¹ s⁻¹ and 226000 M⁻¹ s⁻¹ and 130000 M⁻¹ s⁻¹"}]}
{"binder": "B3", "values": [{"measurement": "binding result", "setting": "[1]", "result": "no binding"}, {"measurement": "AVG Max binding", "setting": "[4]", "result": 71}]}
{"binder": "B4", "values": [{"measurement": "Kd", "setting": "[6]", "result": 1.91, "unit": "nM"}, {"measurement": "Kd", "setting": "[1]", "result": 1.9, "unit": "nM"}, {"measurement": "koff", "setting": "[1]", "result": 0.000364, "unit": "s⁻¹"}, {"measurement": "kon", "setting": "[1]", "result": 190000, "unit": "M⁻¹ s⁻¹"}, {"measurement": "AVG Max binding", "setting": "[4]", "result": 181}, {"measurement": "Lysate EIA", "setting": "[5]", "result": 1.06}, {"measurement": "Kd", "setting": "[10]", "result": 0.205, "unit": "nM"}, {"measurement": "kon", "setting": "[9]", "result": "190000 M⁻¹ s⁻¹ and 328000 M⁻¹ s⁻¹ and 296000 M⁻¹ s⁻¹"}]}
{"binder": "B5", "values": [{"measurement": "IC50, ^3H thymidine incorporation, C4-2 cells", "setting": "[11]", "result": 0.12, "unit": "nCi/mL"}, {"measurement": "IC50, cytotoxicity on C4-2 and LNCaP cells", "setting": "[11]", "result": "< 1", "unit": "nCi/mL"}, {"measurement": "selectivity of killing vs. control antibody (HuIgG)", "setting": "[11]", "result": "> 50", "unit": "fold"}, {"measurement": "selectivity of killing vs. control mAb (HuM195)", "setting": "[11]", "result": "> 100", "unit": "fold"}, {"measurement": "selectivity of killing, C4-2 vs. PC3", "setting": "[11]", "result": "> 50", "unit": "fold"}]}
{"binder": "B6", "values": [{"measurement": "Kd", "setting": "[1]", "result": 0.58, "unit": "nM"}, {"measurement": "koff", "setting": "[1]", "result": "8.2e-05", "unit": "s⁻¹"}, {"measurement": "kon", "setting": "[1]", "result": 140000, "unit": "M⁻¹ s⁻¹"}, {"measurement": "C4.2 FACS", "setting": "[2]", "result": 9.9}, {"measurement": "PGNX FACS", "setting": "[3]", "result": 83}, {"measurement": "AVG Max binding", "setting": "[4]", "result": 202}, {"measurement": "Lysate EIA", "setting": "[5]", "result": 0.48}]}
{"binder": "B7", "values": [{"measurement": "Kd", "setting": "[1]", "result": 0.2, "unit": "nM"}, {"measurement": "koff", "setting": "[1]", "result": "2.9e-05", "unit": "s⁻¹"}, {"measurement": "kon", "setting": "[1]", "result": 150000, "unit": "M⁻¹ s⁻¹"}, {"measurement": "IC50, folate hydrolase activity", "setting": "[7]", "result": 1.39, "unit": "µg/mL"}, {"measurement": "AVG Max binding", "setting": "[4]", "result": 148}]}
